Laboratory results as given in the supplement of paper PMC11136658.

System: peptide library, one residue held at a place counted from the Y acceptor
Experiment: relative phosphorylation of the sub-library (ratio to the mean residue at this position); higher = residue favoured
Summary of the method: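 Biotinylated Tyr-centred peptide library mixtures, each fixing one residue at one position from −5 to +5, were incubated with purified recombinant kinases in 384-well plates for 90 min with 50 μM ATP plus γ-32P-ATP. Streptavidin membranes captured the peptides, which were rinsed and quantified by phosphorimaging and ImageQuant. At each position, intensities were divided by the sum of the 18 randomized residues (16 for the Ser/Thr-free library) and multiplied by that number. Each value is phosphorylation relative to the mean randomized residue.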

FES, construct: Full length, human, sequence (P07332 whole entry, looked up): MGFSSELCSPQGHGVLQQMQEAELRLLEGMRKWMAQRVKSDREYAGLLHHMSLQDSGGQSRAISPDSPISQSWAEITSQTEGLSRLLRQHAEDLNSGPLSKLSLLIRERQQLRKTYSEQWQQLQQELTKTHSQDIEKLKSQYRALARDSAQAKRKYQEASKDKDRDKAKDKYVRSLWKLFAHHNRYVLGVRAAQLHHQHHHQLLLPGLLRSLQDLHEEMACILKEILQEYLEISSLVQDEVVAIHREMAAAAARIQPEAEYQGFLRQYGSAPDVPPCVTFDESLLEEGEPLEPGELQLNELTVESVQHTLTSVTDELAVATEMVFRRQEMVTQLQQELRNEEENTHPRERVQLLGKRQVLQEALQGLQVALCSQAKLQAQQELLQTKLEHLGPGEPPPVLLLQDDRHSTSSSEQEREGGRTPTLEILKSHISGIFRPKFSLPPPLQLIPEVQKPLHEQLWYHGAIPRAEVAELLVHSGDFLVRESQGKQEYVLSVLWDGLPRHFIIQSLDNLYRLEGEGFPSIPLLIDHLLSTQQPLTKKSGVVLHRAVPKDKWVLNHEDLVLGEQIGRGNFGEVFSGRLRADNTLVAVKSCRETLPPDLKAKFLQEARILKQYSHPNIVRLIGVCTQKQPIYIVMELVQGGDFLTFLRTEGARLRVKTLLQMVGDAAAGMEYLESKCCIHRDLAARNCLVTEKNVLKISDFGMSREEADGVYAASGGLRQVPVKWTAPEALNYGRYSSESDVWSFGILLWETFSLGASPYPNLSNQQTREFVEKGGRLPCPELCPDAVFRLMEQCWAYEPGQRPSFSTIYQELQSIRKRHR
FGFR4, construct: aa442-end, human, sequence (P22455 442-802, looked up): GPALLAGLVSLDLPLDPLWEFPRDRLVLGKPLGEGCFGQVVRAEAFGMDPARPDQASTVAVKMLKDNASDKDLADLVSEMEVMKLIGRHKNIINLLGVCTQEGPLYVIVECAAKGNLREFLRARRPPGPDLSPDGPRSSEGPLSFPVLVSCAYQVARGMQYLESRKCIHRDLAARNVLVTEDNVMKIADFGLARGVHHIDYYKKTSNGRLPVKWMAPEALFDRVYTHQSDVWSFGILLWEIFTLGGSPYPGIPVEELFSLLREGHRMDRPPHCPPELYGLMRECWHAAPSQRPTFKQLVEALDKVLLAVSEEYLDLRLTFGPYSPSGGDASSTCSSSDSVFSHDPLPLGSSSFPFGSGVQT
FGFR2, construct: aa285-end, human, sequence (P21802 285-821, looked up): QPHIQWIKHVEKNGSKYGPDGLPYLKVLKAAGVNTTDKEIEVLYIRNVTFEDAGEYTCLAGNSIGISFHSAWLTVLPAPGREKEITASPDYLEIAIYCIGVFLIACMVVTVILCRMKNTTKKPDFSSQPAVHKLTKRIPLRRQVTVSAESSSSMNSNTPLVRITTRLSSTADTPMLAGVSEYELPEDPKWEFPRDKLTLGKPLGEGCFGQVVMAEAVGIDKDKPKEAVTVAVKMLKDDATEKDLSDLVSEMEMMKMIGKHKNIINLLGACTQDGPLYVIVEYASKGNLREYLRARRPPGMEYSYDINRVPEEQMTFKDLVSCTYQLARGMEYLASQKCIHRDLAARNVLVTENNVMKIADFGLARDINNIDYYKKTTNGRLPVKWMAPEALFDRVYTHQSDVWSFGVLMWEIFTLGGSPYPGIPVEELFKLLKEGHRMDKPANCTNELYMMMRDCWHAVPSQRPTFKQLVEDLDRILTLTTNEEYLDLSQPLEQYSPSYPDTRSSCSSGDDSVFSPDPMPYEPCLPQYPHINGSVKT

FES, construct: Full length, human (from UniProt P07332)
relative phosphorylation
Details | at +1 | at +2 | at +3 | at +4 | at +5 | at -1 | at -2 | at -3 | at -4 | at -5
A fixed | 1.45 | 0.535 | 0.428 | 0.817 | 1.18 | 0.518 | 1.05 | 0.86 | 1.26 | 1
D fixed | 0.789 | 0.715 | 0.235 | 0.622 | 0.47 | 0.77 | 1.01 | 1.52 | 1.16 | 0.941
E fixed | 2.65 | 0.794 | 0.289 | 1 | 0.374 | 0.567 | 1.27 | 1.89 | 1.27 | 0.9
F fixed | 0.872 | 1.58 | 1.32 | 1.07 | 1.71 | 1.3 | 0.851 | 1.44 | 1.13 | 1.14
G fixed | 0.754 | 0.372 | 0.35 | 1.01 | 0.809 | 0.274 | 1.26 | 0.985 | 1.4 | 1.09
H fixed | 0.471 | 0.425 | 0.752 | 0.957 | 1.24 | 0.718 | 0.917 | 0.826 | 0.74 | 0.979
I fixed | 1.07 | 1.3 | 3.25 | 1.25 | 1.23 | 4.02 | 1.02 | 0.823 | 1.1 | 1.07
K fixed | 0.208 | 0.294 | 0.21 | 0.592 | 0.394 | 0.273 | 0.62 | 0.44 | 0.615 | 0.766
L fixed | 0.854 | 1.56 | 1.45 | 0.795 | 1.35 | 2.41 | 1.24 | 0.866 | 1.1 | 1.09
M fixed | 1.82 | 1.36 | 2.19 | 1.68 | 1.52 | 1.05 | 0.917 | 1.18 | 1.19 | 1.24
N fixed | 0.332 | 0.848 | 0.273 | 0.57 | 0.593 | 0.618 | 0.982 | 1.02 | 0.762 | 1.14
P fixed | 0.332 | 0.643 | 0.361 | 0.845 | 1.44 | 0.599 | 1.21 | 0.917 | 1.01 | 0.883
Q fixed | 0.95 | 0.552 | 0.373 | 0.858 | 0.669 | 0.412 | 1.1 | 0.702 | 1.13 | 1.18
R fixed | 0.219 | 0.379 | 0.252 | 0.946 | 0.536 | 0.228 | 0.657 | 0.536 | 0.62 | 0.854
S fixed | 1.29 | 0.819 | 0.482 | 0.923 | 0.78 | 0.432 | 0.953 | 0.924 | 0.733 | 0.777
T fixed | 1.09 | 0.867 | 0.646 | 0.831 | 1.03 | 0.784 | 0.916 | 0.806 | 0.664 | 0.821
V fixed | 1.88 | 1.26 | 2.52 | 1.1 | 1.27 | 2.19 | 1.08 | 0.942 | 0.984 | 1.05
W fixed | 0.981 | 3.69 | 2.61 | 2.14 | 1.4 | 0.835 | 0.948 | 1.32 | 1.12 | 1.08
pThr fixed | 3.64 | 1.35 | 0.346 | 0.649 | 0.307 | 1.53 | 1.21 | 1.65 | 0.946 | 0.879
pTyr fixed | 3.48 | 1.27 | 0.712 | 1.14 | 0.357 | 9.09 | 2.21 | 2.25 | 1.83 | 1.55

FGFR2, construct: aa285-end, human (from UniProt P21802)
relative phosphorylation
Details | at +1 | at +2 | at +3 | at +4 | at +5 | at -1 | at -2 | at -3 | at -4 | at -5
A fixed | 0.967 | 0.586 | 0.554 | 0.848 | 1 | 0.772 | 0.949 | 0.935 | 1.13 | 0.929
D fixed | 0.362 | 0.991 | 0.671 | 0.93 | 1.01 | 2.28 | 1.18 | 1.26 | 1 | 1.09
E fixed | 0.774 | 1.54 | 0.515 | 1.11 | 0.972 | 1.41 | 1.42 | 1.53 | 1.14 | 0.89
F fixed | 1.69 | 1.57 | 1.53 | 1.06 | 0.992 | 0.988 | 0.642 | 0.852 | 0.949 | 0.962
G fixed | 0.345 | 0.353 | 0.495 | 0.981 | 1.32 | 0.506 | 1.09 | 1.09 | 1.2 | 1.27
H fixed | 1.84 | 0.971 | 0.988 | 1.14 | 0.943 | 1.51 | 1.28 | 1.16 | 1.2 | 1.21
I fixed | 1.33 | 0.926 | 1.89 | 0.883 | 0.836 | 1.23 | 0.679 | 0.697 | 0.773 | 0.806
K fixed | 0.55 | 0.524 | 0.303 | 0.868 | 0.819 | 0.5 | 1.19 | 1.01 | 1.13 | 1.33
L fixed | 0.929 | 1.24 | 1.96 | 0.885 | 0.927 | 0.94 | 0.78 | 0.685 | 0.81 | 0.824
M fixed | 1.06 | 1.41 | 1.87 | 1.01 | 0.979 | 0.689 | 0.674 | 0.774 | 0.812 | 0.842
N fixed | 0.472 | 1.01 | 0.488 | 0.865 | 0.987 | 1.3 | 1.14 | 1.28 | 0.939 | 1.05
P fixed | 1.11 | 0.612 | 0.666 | 1.16 | 1.47 | 0.815 | 1.08 | 0.924 | 1.17 | 1.01
Q fixed | 0.953 | 0.78 | 0.776 | 0.97 | 0.832 | 1.04 | 1.12 | 0.892 | 1.03 | 0.952
R fixed | 0.706 | 0.758 | 0.551 | 1.39 | 0.884 | 0.495 | 1.24 | 1.12 | 1.26 | 1.34
S fixed | 0.733 | 0.665 | 0.545 | 0.966 | 1.02 | 0.681 | 1.14 | 1.13 | 0.854 | 0.939
T fixed | 0.901 | 0.827 | 0.737 | 0.918 | 0.983 | 0.805 | 0.939 | 1.08 | 0.721 | 0.883
V fixed | 1.55 | 1.02 | 1.62 | 0.872 | 1.05 | 0.97 | 0.752 | 0.662 | 0.757 | 0.714
W fixed | 1.72 | 2.22 | 1.84 | 1.14 | 0.977 | 1.08 | 0.697 | 0.912 | 1.12 | 0.969
pThr fixed | 0.729 | 1.43 | 0.766 | 0.731 | 0.782 | 1.25 | 1 | 1.1 | 0.883 | 0.849
pTyr fixed | 2.75 | 2.82 | 0.616 | 1.15 | 0.835 | 2.48 | 1.25 | 1.2 | 1.1 | 0.913

FGFR4, construct: aa442-end, human (from UniProt P22455)
relative phosphorylation
Details | at +1 | at +2 | at +3 | at +4 | at +5 | at -1 | at -2 | at -3 | at -4 | at -5
A fixed | 0.811 | 0.623 | 0.572 | 0.823 | 2.94 | 0.585 | 1.06 | 0.944 | 1.14 | 1.01
D fixed | 0.352 | 1.4 | 0.818 | 1.14 | 0.931 | 2.54 | 1.38 | 1.84 | 1.64 | 1.42
E fixed | 0.566 | 2.01 | 0.647 | 1.39 | 0.71 | 2.03 | 1.75 | 2.52 | 2.01 | 1.38
F fixed | 1.94 | 1.17 | 1.42 | 0.906 | 1.21 | 0.91 | 0.593 | 0.712 | 0.88 | 0.793
G fixed | 0.379 | 0.43 | 0.621 | 1.21 | 0.692 | 0.401 | 1.08 | 1.09 | 1.22 | 1.31
H fixed | 1.55 | 0.88 | 0.767 | 1.13 | 0.954 | 0.985 | 1.05 | 1 | 0.977 | 1.08
I fixed | 1.8 | 1.21 | 2.44 | 0.869 | 0.75 | 1.89 | 0.902 | 0.626 | 0.732 | 0.929
K fixed | 0.29 | 0.37 | 0.27 | 0.602 | 0.913 | 0.311 | 0.693 | 0.614 | 0.699 | 0.845
L fixed | 1.25 | 1.05 | 2.03 | 0.841 | 0.922 | 1.12 | 0.839 | 0.639 | 0.808 | 0.898
M fixed | 1.53 | 1.1 | 1.53 | 1.07 | 0.841 | 0.828 | 0.681 | 0.834 | 0.767 | 0.908
N fixed | 0.341 | 1.04 | 0.425 | 0.873 | 0.832 | 1.03 | 1.05 | 1.25 | 1.03 | 1.1
P fixed | 0.49 | 0.708 | 0.891 | 1.37 | 0.769 | 0.65 | 1.19 | 0.862 | 1.1 | 1.17
Q fixed | 0.678 | 0.705 | 0.524 | 0.94 | 0.927 | 0.646 | 1.11 | 0.901 | 1.07 | 1.03
R fixed | 0.458 | 0.535 | 0.364 | 0.781 | 0.865 | 0.292 | 0.657 | 0.73 | 0.667 | 0.866
S fixed | 0.799 | 0.864 | 0.579 | 0.938 | 0.916 | 0.467 | 1.07 | 1.07 | 0.849 | 0.856
T fixed | 0.807 | 0.934 | 0.686 | 0.88 | 0.625 | 0.966 | 1 | 0.883 | 0.644 | 0.807
V fixed | 1.74 | 1.2 | 1.92 | 0.817 | 0.81 | 1.38 | 1.25 | 0.683 | 0.741 | 0.779
W fixed | 2.22 | 1.77 | 1.5 | 1.43 | 1.4 | 0.952 | 0.639 | 0.794 | 1.02 | 0.811
pThr fixed | 0.826 | 1.95 | 0.731 | 1 | 0.75 | 1.29 | 1.3 | 1.84 | 1.85 | 1.29
pTyr fixed | 3.85 | 6.17 | 1.24 | 1.34 | 0.82 | 7.16 | 1.79 | 2.69 | 2.45 | 1.36
